Stoichiometry N data for two molecules are collected here from paper PMC7889885.

Assay [1] concerns the target T1, human NKCC1 (hNKCC1a, SLC12A2), twin-Strep tagged, as prepared for cryo-EM (human), P55011.
T1 chain: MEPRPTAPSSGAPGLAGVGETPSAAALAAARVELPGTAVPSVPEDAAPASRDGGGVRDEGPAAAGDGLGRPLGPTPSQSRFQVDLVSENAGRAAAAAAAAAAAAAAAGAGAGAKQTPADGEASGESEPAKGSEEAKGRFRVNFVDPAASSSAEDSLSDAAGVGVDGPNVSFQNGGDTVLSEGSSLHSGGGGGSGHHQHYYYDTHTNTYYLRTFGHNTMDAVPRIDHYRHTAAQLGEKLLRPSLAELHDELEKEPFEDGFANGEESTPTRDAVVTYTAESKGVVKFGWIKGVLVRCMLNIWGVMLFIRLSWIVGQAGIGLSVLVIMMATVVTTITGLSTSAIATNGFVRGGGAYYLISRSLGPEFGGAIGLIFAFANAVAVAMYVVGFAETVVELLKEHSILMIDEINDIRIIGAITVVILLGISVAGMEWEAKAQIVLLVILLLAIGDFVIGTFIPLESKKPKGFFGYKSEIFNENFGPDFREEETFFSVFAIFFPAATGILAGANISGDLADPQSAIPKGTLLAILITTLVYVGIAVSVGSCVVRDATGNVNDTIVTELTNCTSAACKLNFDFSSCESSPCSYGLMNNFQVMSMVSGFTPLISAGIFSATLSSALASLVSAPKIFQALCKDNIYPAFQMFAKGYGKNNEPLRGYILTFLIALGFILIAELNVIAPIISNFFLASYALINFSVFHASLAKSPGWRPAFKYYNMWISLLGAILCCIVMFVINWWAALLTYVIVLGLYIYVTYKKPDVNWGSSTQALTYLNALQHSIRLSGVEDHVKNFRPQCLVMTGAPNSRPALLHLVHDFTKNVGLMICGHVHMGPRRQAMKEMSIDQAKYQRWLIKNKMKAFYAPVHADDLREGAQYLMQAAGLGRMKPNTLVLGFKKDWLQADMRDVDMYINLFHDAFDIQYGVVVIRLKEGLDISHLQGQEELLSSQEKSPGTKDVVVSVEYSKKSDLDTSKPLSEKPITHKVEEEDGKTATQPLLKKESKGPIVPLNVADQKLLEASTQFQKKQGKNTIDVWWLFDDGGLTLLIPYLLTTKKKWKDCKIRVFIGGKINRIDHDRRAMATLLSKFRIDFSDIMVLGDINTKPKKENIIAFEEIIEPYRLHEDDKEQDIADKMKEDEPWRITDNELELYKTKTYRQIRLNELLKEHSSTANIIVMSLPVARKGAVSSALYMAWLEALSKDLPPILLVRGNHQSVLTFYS
In words: cryo-EM structure; single-particle cryo-EM of the purified transporter in 20 mM HEPES pH 7.4, 150 mM NaCl, 0.1% digitonin, ~10 mg/ml; C2 symmetry imposed. The note with it: remark: other sources report otherwise.

In assay [2] the target is T2, mouse KCC2 (mKCC2a, SLC12A5), twin-Strep tagged, as prepared for cryo-EM (mouse), Q91V14.
T2 chain: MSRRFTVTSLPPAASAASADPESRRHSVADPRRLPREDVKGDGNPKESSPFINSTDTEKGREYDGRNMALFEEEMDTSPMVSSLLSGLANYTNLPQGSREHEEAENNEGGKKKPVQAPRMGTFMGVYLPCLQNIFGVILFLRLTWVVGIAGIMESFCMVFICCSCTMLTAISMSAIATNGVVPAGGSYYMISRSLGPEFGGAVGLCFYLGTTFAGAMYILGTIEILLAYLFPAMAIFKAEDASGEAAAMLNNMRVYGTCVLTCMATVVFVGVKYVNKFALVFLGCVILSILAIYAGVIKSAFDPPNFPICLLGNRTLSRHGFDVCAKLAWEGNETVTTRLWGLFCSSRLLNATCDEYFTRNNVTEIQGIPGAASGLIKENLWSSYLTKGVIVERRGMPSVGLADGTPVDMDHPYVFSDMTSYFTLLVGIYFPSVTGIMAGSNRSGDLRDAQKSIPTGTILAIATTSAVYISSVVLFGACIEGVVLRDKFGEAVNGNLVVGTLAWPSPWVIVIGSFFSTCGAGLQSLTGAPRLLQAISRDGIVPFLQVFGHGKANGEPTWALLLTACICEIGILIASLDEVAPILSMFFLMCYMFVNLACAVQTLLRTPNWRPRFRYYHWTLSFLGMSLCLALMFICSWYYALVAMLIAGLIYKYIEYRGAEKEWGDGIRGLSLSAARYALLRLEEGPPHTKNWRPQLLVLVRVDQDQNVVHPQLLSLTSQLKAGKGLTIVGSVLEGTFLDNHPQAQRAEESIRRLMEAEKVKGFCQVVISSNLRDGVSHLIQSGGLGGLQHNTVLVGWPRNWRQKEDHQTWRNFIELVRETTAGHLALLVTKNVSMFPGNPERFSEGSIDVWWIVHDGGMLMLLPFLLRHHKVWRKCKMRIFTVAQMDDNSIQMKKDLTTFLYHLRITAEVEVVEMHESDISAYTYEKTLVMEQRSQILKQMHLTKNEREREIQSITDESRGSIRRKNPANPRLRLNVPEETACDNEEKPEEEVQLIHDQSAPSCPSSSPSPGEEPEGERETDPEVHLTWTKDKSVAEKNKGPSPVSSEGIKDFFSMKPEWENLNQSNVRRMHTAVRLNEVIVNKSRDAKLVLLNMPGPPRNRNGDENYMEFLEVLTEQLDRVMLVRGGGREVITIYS
The description is as above. The settings on record: remark: other sources report otherwise.

B1: human NKCC1 (hNKCC1a, SLC12A2), twin-Strep tagged, as prepared for cryo-EM, P55011 1-1212 (natural protein)
chain: MEPRPTAPSSGAPGLAGVGETPSAAALAAARVELPGTAVPSVPEDAAPASRDGGGVRDEGPAAAGDGLGRPLGPTPSQSRFQVDLVSENAGRAAAAAAAAAAAAAAAGAGAGAKQTPADGEASGESEPAKGSEEAKGRFRVNFVDPAASSSAEDSLSDAAGVGVDGPNVSFQNGGDTVLSEGSSLHSGGGGGSGHHQHYYYDTHTNTYYLRTFGHNTMDAVPRIDHYRHTAAQLGEKLLRPSLAELHDELEKEPFEDGFANGEESTPTRDAVVTYTAESKGVVKFGWIKGVLVRCMLNIWGVMLFIRLSWIVGQAGIGLSVLVIMMATVVTTITGLSTSAIATNGFVRGGGAYYLISRSLGPEFGGAIGLIFAFANAVAVAMYVVGFAETVVELLKEHSILMIDEINDIRIIGAITVVILLGISVAGMEWEAKAQIVLLVILLLAIGDFVIGTFIPLESKKPKGFFGYKSEIFNENFGPDFREEETFFSVFAIFFPAATGILAGANISGDLADPQSAIPKGTLLAILITTLVYVGIAVSVGSCVVRDATGNVNDTIVTELTNCTSAACKLNFDFSSCESSPCSYGLMNNFQVMSMVSGFTPLISAGIFSATLSSALASLVSAPKIFQALCKDNIYPAFQMFAKGYGKNNEPLRGYILTFLIALGFILIAELNVIAPIISNFFLASYALINFSVFHASLAKSPGWRPAFKYYNMWISLLGAILCCIVMFVINWWAALLTYVIVLGLYIYVTYKKPDVNWGSSTQALTYLNALQHSIRLSGVEDHVKNFRPQCLVMTGAPNSRPALLHLVHDFTKNVGLMICGHVHMGPRRQAMKEMSIDQAKYQRWLIKNKMKAFYAPVHADDLREGAQYLMQAAGLGRMKPNTLVLGFKKDWLQADMRDVDMYINLFHDAFDIQYGVVVIRLKEGLDISHLQGQEELLSSQEKSPGTKDVVVSVEYSKKSDLDTSKPLSEKPITHKVEEEDGKTATQPLLKKESKGPIVPLNVADQKLLEASTQFQKKQGKNTIDVWWLFDDGGLTLLIPYLLTTKKKWKDCKIRVFIGGKINRIDHDRRAMATLLSKFRIDFSDIMVLGDINTKPKKENIIAFEEIIEPYRLHEDDKEQDIADKMKEDEPWRITDNELELYKTKTYRQIRLNELLKEHSSTANIIVMSLPVARKGAVSSALYMAWLEALSKDLPPILLVRGNHQSVLTFYS
In assay [1], B1 yielded a stoichiometry N of 2.

B2: mouse KCC2 (mKCC2a, SLC12A5), twin-Strep tagged, as prepared for cryo-EM, Q91V14 1-1138 (natural protein)
chain: MSRRFTVTSLPPAASAASADPESRRHSVADPRRLPREDVKGDGNPKESSPFINSTDTEKGREYDGRNMALFEEEMDTSPMVSSLLSGLANYTNLPQGSREHEEAENNEGGKKKPVQAPRMGTFMGVYLPCLQNIFGVILFLRLTWVVGIAGIMESFCMVFICCSCTMLTAISMSAIATNGVVPAGGSYYMISRSLGPEFGGAVGLCFYLGTTFAGAMYILGTIEILLAYLFPAMAIFKAEDASGEAAAMLNNMRVYGTCVLTCMATVVFVGVKYVNKFALVFLGCVILSILAIYAGVIKSAFDPPNFPICLLGNRTLSRHGFDVCAKLAWEGNETVTTRLWGLFCSSRLLNATCDEYFTRNNVTEIQGIPGAASGLIKENLWSSYLTKGVIVERRGMPSVGLADGTPVDMDHPYVFSDMTSYFTLLVGIYFPSVTGIMAGSNRSGDLRDAQKSIPTGTILAIATTSAVYISSVVLFGACIEGVVLRDKFGEAVNGNLVVGTLAWPSPWVIVIGSFFSTCGAGLQSLTGAPRLLQAISRDGIVPFLQVFGHGKANGEPTWALLLTACICEIGILIASLDEVAPILSMFFLMCYMFVNLACAVQTLLRTPNWRPRFRYYHWTLSFLGMSLCLALMFICSWYYALVAMLIAGLIYKYIEYRGAEKEWGDGIRGLSLSAARYALLRLEEGPPHTKNWRPQLLVLVRVDQDQNVVHPQLLSLTSQLKAGKGLTIVGSVLEGTFLDNHPQAQRAEESIRRLMEAEKVKGFCQVVISSNLRDGVSHLIQSGGLGGLQHNTVLVGWPRNWRQKEDHQTWRNFIELVRETTAGHLALLVTKNVSMFPGNPERFSEGSIDVWWIVHDGGMLMLLPFLLRHHKVWRKCKMRIFTVAQMDDNSIQMKKDLTTFLYHLRITAEVEVVEMHESDISAYTYEKTLVMEQRSQILKQMHLTKNEREREIQSITDESRGSIRRKNPANPRLRLNVPEETACDNEEKPEEEVQLIHDQSAPSCPSSSPSPGEEPEGERETDPEVHLTWTKDKSVAEKNKGPSPVSSEGIKDFFSMKPEWENLNQSNVRRMHTAVRLNEVIVNKSRDAKLVLLNMPGPPRNRNGDENYMEFLEVLTEQLDRVMLVRGGGREVITIYS
modifications: here or on the partner: phosphorylation at T929 and T1029 (confirmed by mass spectrometry); phosphorylation at T929 and T1029 (confirmed by mass spectrometry)
In the case of B2, the stoichiometry N in assay [2] was determined as 2.
